Measurements from PMC1853097, “The high-resolution NMR structure of the R21A Spc-SH3:P41 complex: Understanding the determinants of binding affinity by comparison with Abl-SH3” (BMC Structural Biology, 2007).
Read-outs that look alike come from different tables or passages of the source. One block for each substance: values may come before it.

Assays:
p41 decapeptide [1] = experiment: ITC (Microcal MCS); conditions: 25 °C, added salt not given, 20 mM buffer only, Three buffers of different ionisation heat at each pH, each 20 mM. At pH 7.0: phosphate, hepes and imidazole (named in F); for Kb: scale: 10^3 M^-1
p41 decapeptide [2] = experiment: ITC (quoted from reference 16, Palencia et al. 2004); conditions: 25 °C (Table 1 title), not stated ('under similar conditions'), cited from earlier work; for Kb: scale: 10^3 M^-1
[3] = tested on: WT α-spectrin SH3 domain (WT Spc-SH3); conditions: Spc-SH3 relative to Abl-SH3; cited from earlier work
Text: Background SH3 domains are small protein modules of 60–85 amino acids that bind to short proline-rich sequences with moderate-to-low affinity and specificity. Interactions with SH3 domains play a crucial role in regulation of many cellular processes (some are related to cancer and AIDS) and have thus been interesting targets in drug design. The decapeptide APSYSPPPPP (p41) binds with relatively high affinity to the SH3 domain of the Abl tyrosine kinase (Abl-SH3), while it has a 100 times lower affinity for the α-spectrin SH3 domain (Spc-SH3). Results Here we present the high-resolution structu ... || Here we present the solution structure of the R21A mutant of the α-spectrin SH3 domain (Spc-SH3), both in its free form and bound to the decapeptide APSYSPPPPP (p41). We also show a complete thermodynamic characterization of the SH3-p41 interaction by calorimetric methods, together with an analysis of its effect upon the conformational dynamics of the SH3 domain using amide hydrogen-deuterium exchange (HX). The p41 peptide was initially designed as a high-affinity and high-specificity ligand for the Abl-SH3 domain [6] and the crystal structure of the complex was subsequently determined [[12] ...

[4] = molecular target: SH3 domain of the Abl tyrosine kinase (Abl-SH3); conditions: cited from earlier work; for Kb (binding constant): ITC, 25°C
Text: The affinities are much lower than that of the Abl-SH3 domain for p41 under similar conditions, which is in the range of 2 × 10^5 – 4 × 10^5 M^-1 [16]. In all cases the binding is driven by a large and favourable enthalpy change, partially compensated by an unfavourable entropy change. A similar thermodynamic signature is usually observed for the binding of proline-rich peptides to other SH3 domains. The very small variation of the binding enthalpies with the ionization enthalpy of the buffers ... || We have performed a global analysis of the ΔCpapp MathType@MTEF@5@5@+=feaafiart1ev1aaatCvAUfKttLearuWrP9MDH5MBPbIqV92AaeXatLxBI9gBaebbnrfifHhDYfgasaacH8akY=wiFfYdH8Gipec8Eeeu0xXdbba9frFj0=OqFfea0dXdd9vqai=hGuQ8kuc9pgc9s8qqaq=dirpe0xb9q8qiLsFr0=vr0=vr0dc8meaabaqaciaacaGaaeqabaqabeGadaaakeaacqqHuoarcqWGdbWqdaqhaaWcbaGaemiCaahabaGaemyyaeMaemiCaaNaemiCaahaaaaa@34D4@ curves using a simple model in which the protein/ligand binding and protein unfolding equilibria are coupled (Figure 2). This analysis is, with minor modifications, similar to that used previously for the analysis of the interaction be ...

[5] = molecular target: R21A mutant of the α-spectrin SH3 domain (R21A Spc-SH3); experiment: ITC titration of R21A Spc-SH3 with p41; format: binding, chicken; conditions: 25°C, global fit of three isotherms, error = 95% confidence interval
Description: (§1) The binding between the p41 decapeptide and the R21A Spc-SH3 mutant domain was studied by a combination of isothermal titration calorimetry (ITC) and differential scanning calorimetry (DSC) experiments. ITC experiments were performed at 25°C at both pH 3.0 and 7.0, using several buffers at a concentration of 20 mM. Similar ITC experiments were made with the WT Spc-SH3 domain for comparison. […] The contribution of protonation/deprotonation processes to the binding enthalpy change, was estimated using three buffers differing in their ionization heats (Figure 1B).
(§2) ITC experiments were performed at 25°C in a high-precision MCS titration calorimeter (Microcal Inc., Northampton, MA). Prior to the experiments the protein was extensively dialyzed at 4°C against the appropriate buffer. The solutions of p41 peptide were prepared by dissolving the lyophilized material directly into the buffer and subsequently adjusting the pH of the solution. All buffers and solutions were filtered and degassed and equilibrated to the working temperature prior to each experiment. […] The binding constant, Kb, and the enthalpy change of binding, ΔHb, were determined by global fitting of the three binding isotherms measured in different buffers, using a model of binding to a single set of identical sites, according to the equation: […]

[6] = molecular target: WT α-spectrin SH3 domain (WT Spc-SH3); experiment: ITC titration of WT Spc-SH3 with p41; format: binding, chicken; set-up: unit not given here; conditions: 25°C, global fit of three isotherms, error = 95% confidence interval
Description: as §1, §2

p (protons per mole of ligand bound) (p41 decapeptide [1]; pH 3.0): -0.07
ΔGb (p41 decapeptide [1]; pH 3.0): -21.5 kJ/mol
Kb (p41 decapeptide [1]; pH 3.0): 5.8
p (protons per mole of ligand bound) (p41 decapeptide [1]; pH 7.0): 0.01
ΔGb (p41 decapeptide [1]; pH 7.0): -21.2 kJ/mol
Kb (p41 decapeptide [1]; pH 7.0): 5.2
Substance: alpha-spectrin SH3 domain (Spc-SH3), wild type

Substance: Abl tyrosine kinase SH3 domain (Abl-SH3)
ΔGb (p41 decapeptide [2]; pH 3.0): -30.4 kJ/mol
Kb (p41 decapeptide [2]; pH 3.0): 210
p (protons per mole of ligand bound) (p41 decapeptide [2]; pH 7.0): 0.1
ΔGb (p41 decapeptide [2]; pH 7.0): -31.4 kJ/mol
Kb (p41 decapeptide [2]; pH 7.0): 323

Kb (binding constant) ([5]; pH 3.0, 20 mM buffers): 18.2 ± 2.0 ×10^-3 M^-1
Kb (binding constant) ([5]; pH 7.0, 20 mM buffers (phosphate, hepes, imidazole), single set of identical sites): 18.1 ± 1.9 ×10^-3 M^-1
Kb (binding constant) ([6]; pH 3.0, 20 mM buffers): 5.8 ± 0.8 ×10^-3
Kb (binding constant) ([6]; pH 7.0, 20 mM buffers): 5.2 ± 1.2 ×10^-3
Substance: APSYSPPPPP [p41, synthetic decapeptide …, both acetylated and methylated in its termini]
times lower affinity for Spc-SH3 than for Abl-SH3 [3]: 100 times
Kb (binding constant) ([4]; pH 3.0): 210000 M⁻¹
Kb (binding constant) ([4]; pH 7.0): 323000 M⁻¹
affinity of the Abl-SH3 domain for p41 (binding constant) ([4]; under similar conditions): 200000 to 400000 M⁻¹

p (protons per mole of ligand bound) (p41 decapeptide [1]; pH 3.0): -0.29
ΔGb (p41 decapeptide [1]; pH 3.0): -24.3 kJ/mol
Kb (p41 decapeptide [1]; pH 3.0): 18.2
p (protons per mole of ligand bound) (p41 decapeptide [1]; pH 7.0): 0.06
ΔGb (p41 decapeptide [1]; pH 7.0): -24.3 kJ/mol
Kb (p41 decapeptide [1]; pH 7.0): 18.1
Substance: alpha-spectrin SH3 domain (Spc-SH3), R21A mutant R21A
